Data reported in PMC4978918.

Assays:
Experiment in all cases: co-IP; anti-V5 IP of Scc4-3V5 or scc4-RID-3V5 from yeast extracts, cells at midlog phase in YPD at 23°, IPH50 buffer (50 mM Tris pH 8.0, 50 mM NaCl, 5 mM EDTA, 0.5% NP-40), 4°; blot with anti-Myc (Scc2) or anti-HA (Smc1)
[1] = target: scc4-L490ins-3V5 (S. cerevisiae) (UniProt P40090)
[2] = target: scc4-L305ins-3V5 (S. cerevisiae) (UniProt P40090)
[3] = target: scc4-V485ins-3V5 (S. cerevisiae) (UniProt P40090)
[4] = target: scc4-S505ins-3V5 (S. cerevisiae) (UniProt P40090)

Measured: co-precipitation, percent of the wild-type level

B1: Scc2-12Myc (natural protein)
chain: MSYPGKDKNIPGRIIEALEDLPLSYLVPKDGLAALVNAPMRVSLPFDKTIFTSADDGRDVNINVLGTANSTTSSIKNEAEKERLVFKRPSNFTSSANSVDYVPTNFLEGLSPLAQSVLSTHKGLNDSINIEKKSEIVSRPEAKHKLESVTSNAGNLSFNDNSSNKKTKTSTGVTMTQANLAEQYLNDLKNILDIVGFDQNSAEIGNIEYWLQLPNKKFVLTTNCLTKLQMTIKNITDNPQLSNSIEITWLLRLLDVMVCNIKFSKSSLKMGLDDSMLRYIALLSTIVLFNIFLLGKNDSNLHRESYIMEPVNFLSDLIESLKILTIEYGSLKIEFDTFQEALELLPKYIRNGPFLDDNVTAKLVYIFSDLLMNNDIEATTNIQFQSFWDNVKRISSDILVSLFGSFDQQRGFIIEELLSHIEKLPTKRIQKKLRKVGNQNIYITDFTFTLMSMLENINCYSFCNQMKDIAPENIDLLKNEYKKQEEFLFNIVEHINDTILERFFKNPSALRYVIDNFVQDLLLLISSPQWPVTEKILSSLLKRLLSVYSPSMQVSANIETICLQLIGNIGSTIFDIKCSTRDHEDNNLIKMINYPETLPHFFKSFEECIAYNETIKCRRSATRFLWNLRLGTILILEEYTKDAKEQIITVDNELKKILEQIKDGGLGPELENREADFSTIKLDYFSILHAFELLNLYDPYLKLILSLLAKDKIKLRSTAIKCLSMLASKDKVILSNPMVKETIHRRLNDSSASVKDAILDLVSINSSYFEFYQQINNNYNDDSIMVRKHVLRINEKMYDETNDIVTKVYVIARILMKIEDEEDNIIDMARLILLNRWILKVHEVLDQPEKLKEISSSVLLVMSRVAIMNEKCSQLFDLFLNFYLLNKEAHSKEAYDKITHVLTILTDFLVQKIVELNSDDTNEKNSIVDKQNFLNLLAKFADSTVSFLTKDHITALYPYMVSDEKSDFHYYILQVFRCTFEKLANFKQKFLYDLETTLLSRLPKMNVREIDEAMPLIWSVATHRHDTARVAKACSSCLSHLHPYINKANNEEAAIVVDGKLQRLIYLSTGFARFCFPKPSNDKIAFLQEGETLYEHITKCLLVLSKDKITHVIRRVAVKNLTKLCGNHPKLFNSRHVLHLLDKEFQSDQLDIKLVILESLYDLFLLEERKSVRNTGVNSTLSSNSILKKKLLKTNRVEFANDGVCSALATRFLDNILQLCLLRDLKNSLVAIRLLKLILKFGYTNPSHSIPTVIALFASTSQYIRHVAYELLEDLFEKYETLVFSSLSRGVTKAIHYSIHTDEKYYYKHDHFLSLLEKLCGTGKKNGPKFFKVLKRIMQSYLDDITDLTSTNSSVQKSIFVLCTNISNITFVSQYDLVSLLKTIDLTTDRLKEVIMDEIGDNVSSLSVSEEKLSGIILIQLSLQDLGTYLLHLYGLRDDVLLLDIVEESELKNKQLPAKKPDISKFSAQLENIEQYSSNGKLLTYFRKHVKDT
50%: [1] | [2] | [3] | [4]
